# From patent publication US20140242072A1, “ANTI-ICAM-1 ANTIBODIES TO TREAT MULTIPLE-MYELOMA RELATED DISORDERS” (BIOINVENT INTERNATIONAL AB, priority 2011, published 2014)
# B1: BI-AB antibody (antibody, V domains shown)
# VH: EVQLLESGGGLVQPGGSLRLSCAASGFTFSNAWMSWVRQAPGKGLEWVAFIWYDGSNKYYADSVKGRFTISRDNSKNTLYLQMNSLRAEDTAVYYCARYSGWYFDYWGQGTLVTVSS
# VL: QSVLTQPPSASGTPGQRVTISCTGSSSNIGAGYDVHWYQQLPGTAPKLLIYDNNNRPSGVPDRFSGSKSGTSASLAISGLRSEDEADYYCQSYDSSLSAWLFGGGTKLTVLG
# notes: It says the antibody was described previously in WO 2007/112110; also called exemplary antibody of the invention
# Tests used:
# [1] = target: T1, ICAM-1 (BI-AB epitope) on cells from multiple-myeloma-related disorders (Homo sapiens, UniProt P05362); assay: BI-AB epitope expression on bone marrow cells of patients with multiple-myeloma-related disorders by flow cytometry; assay type: binding; settings: FACS
# T1 construct: endogenous in cells; host or cells: primary bone marrow cells (plasma cells) from patients with plasmacytoma, plasma cell leukemia or light chain amyloidosis
# T1 sequence (P05362 28-532): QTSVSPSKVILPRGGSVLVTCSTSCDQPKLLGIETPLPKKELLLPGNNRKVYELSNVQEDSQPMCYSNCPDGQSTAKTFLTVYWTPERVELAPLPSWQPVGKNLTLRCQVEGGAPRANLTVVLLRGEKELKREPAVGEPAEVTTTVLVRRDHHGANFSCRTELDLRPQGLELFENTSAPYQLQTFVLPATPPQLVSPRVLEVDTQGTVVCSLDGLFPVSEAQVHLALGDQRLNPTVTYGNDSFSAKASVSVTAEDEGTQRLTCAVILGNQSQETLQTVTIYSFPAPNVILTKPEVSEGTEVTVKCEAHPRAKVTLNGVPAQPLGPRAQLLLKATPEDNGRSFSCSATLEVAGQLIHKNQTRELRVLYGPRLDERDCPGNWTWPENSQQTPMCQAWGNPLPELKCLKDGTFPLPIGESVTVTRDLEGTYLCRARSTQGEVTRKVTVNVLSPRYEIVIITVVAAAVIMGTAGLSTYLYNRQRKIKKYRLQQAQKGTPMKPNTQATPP
# Source text: FIG. 1: BI-AB epitope expression in a cohort of patients with plasma cell disorders, consecutively analysed at Lund University Hospital, Sweden. • Pat no (Patient number); M (male); F (female); Ig (immunoglobulin class of M-component); M comp (monoclonal Ig component in serum); Skel. destr (number of skeletal destruction as measured by X-ray); n/a (not available); MM-cells (cells from multiple-myeloma-related disorders counted as % of all nucleated cells in bone marrow smears); ISS (International Staging System of MM); T (number of different MM treatment regimes before BI-AB analysis); Diagnosis; AL (amyloid light chain amyloidosis); PCL (plasma cell leukemia); PC (plasmacytoma); Expression level (BI-AB epitope expression level measured by FACS on cells from multiple-myeloma-related disorders: +++ (very highly positive), ++ (highly positive), + (positive) or − (negative); Positive MM cells (BI-AB epitope positive cells from multiple-myeloma-related disorders as measured by FACS).
# We evaluated expression of the BI-AB epitope on bone marrow cells in patients with multiple-myeloma-related disorders (plasmacytoma, plasma cell leukemia, and light chain amyloidosis) by flow cytometry (FIG. 1).
# Cells from multiple-myeloma-related disorders were identified using fluorescent antibodies against the following surface antigens CD38, CD138, CD45 and CD56 according to European Myeloma Network guidelines on multiparametric flow cytometry in MM (Rawstron et al., 2008) and confirming monoclonal cells from multiple-myeloma-related disorders with intracellular staining of lambda and kappa light chains.
# [2] = target: T2, Intercellular Adhesion Molecule-1 (ICAM-1) (human, UniProt P05362 28-532); assay: flow cytometry (FACS) on bone marrow plasma cells of patients with PC, PCL or AL
# T2 construct: whole, on cells; Endogenous ICAM-1 on primary patient cells; also called CD54
# T2 sequence (P05362 28-532): as above
molecule,measurement,setting,value
B1,BI-AB epitope positive cells from multiple-myeloma-related disorders,"[1]; all patients with plasmacytoma, plasma cell leukemia or light chain amyloidosis",expressed the BI-AB epitope on most cells
same,median BI-AB epitope expression level relative to normal B cells from the same patients,[1]; cells from multiple-myeloma-related disorders vs normal B cells,10 times higher
same,BI-AB epitope expression level on cells from multiple-myeloma-related disorders,[1]; patient bone marrow cells,very highly expressed
same,binding result,[2],binds
